{"source": "paper PMC9315497", "about": "“Structural Analysis of Ino2p/Ino4p Mutual Interactions and Their Binding Interface with Promoter DNA”", "binders": {"B1": {"name": "19bp-FAM promoter DNA (dsDNA)", "DNA 1": "GAATTTTCACATGCAGATC", "DNA 2": "GATCTGCATGTGAAAATTC"}, "B2": {"name": "Flanking mutant promoter DNA (dsDNA)", "DNA 1": "GAGGGTCACATGCAG", "DNA 2": "CTGCATGTGACCCTC"}, "B3": {"name": "15bp-GC promoter DNA (dsDNA)", "DNA 1": "GATTTTCACATGCAG", "DNA 2": "CCTGCATGTGAAAAT"}}, "key": {"[1]": {"target": "T1, Ino2pDBD WT;Ino4pDBD WT (Saccharomyces cerevisiae (genomic DNA …, UniProt P26798;P13902 230-304;40-117, |))", "T1 sequence 1": "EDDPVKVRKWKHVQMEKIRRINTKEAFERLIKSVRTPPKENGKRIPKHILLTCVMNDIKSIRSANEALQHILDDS", "T1 sequence 2": "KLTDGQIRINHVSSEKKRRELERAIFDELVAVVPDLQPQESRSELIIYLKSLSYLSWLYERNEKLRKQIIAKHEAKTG", "assay": "EMSA; 20 mM Tris-HCl pH 8.0, 100 mM NaCl (buffer B); EMSA 1.5 uM DNA, 1.5-150 uM protein, 1 h on ice; ITC at 10 C, 400 uM DNA into 20 uM protein", "details": "protein: recombinant;recombinant, tags: N-terminal His6;none (with His-Ino2p), copies: 1;1"}, "[2]": {"target": "T2, Ino2pMut;Ino4pDBD WT (Saccharomyces cerevisiae;Saccharomyces …, UniProt P26798;P13902 230-304;40-117, H241A;E245A;R249A;R273A|)", "T2 sequence 1": "T1 sequence 1 with H12A, E16A, R20A, R44A", "T2 sequence 2": "T1 sequence 2", "assay": "ITC; 10 C; 20 mM Tris-HCl pH 8.0, 100 mM NaCl (buffer B); EMSA 1.5 uM DNA, 1.5-150 uM protein, 1 h on ice; ITC at 10 C, 400 uM DNA into 20 uM protein", "details": "protein: recombinant;recombinant; tags: N-terminal His6;none (with His-Ino2p); copies: 1;1; 14 bp with 5' overhang 1 nt at each end"}, "[3]": {"target": "T3, Ino2pDBD WT;Ino4pMut (Saccharomyces cerevisiae (genomic DNA …, UniProt P26798;P13902 230-304;40-117, |H50A;E54A;R57A;R58A))", "T3 sequence 1": "T1 sequence 1", "T3 sequence 2": "T1 sequence 2 with H11A, E15A, R18A, R19A", "assay": "ITC; 10 C; 20 mM Tris-HCl pH 8.0, 100 mM NaCl (buffer B); EMSA 1.5 uM DNA, 1.5-150 uM protein, 1 h on ice; ITC at 10 C, 400 uM DNA into 20 uM protein", "details": "protein: recombinant;recombinant; tags: N-terminal His6;none; copies: 1;1; 14 bp with 5' overhang 1 nt at each end"}, "[4]": {"target": "T1, Ino2pDBD WT;Ino4pDBD WT", "assay": "ITC; 10 C; 20 mM Tris-HCl pH 8.0, 100 mM NaCl (buffer B); EMSA 1.5 uM DNA, 1.5-150 uM protein, 1 h on ice; ITC at 10 C, 400 uM DNA into 20 uM protein", "details": "protein: recombinant;recombinant; tags: N-terminal His6;none (with His-Ino2p); copies: 1;1; 14 bp with 5' overhang 1 nt at each end"}}, "note": "Substitutions are numbered along the chain they refer to.", "data": [{"binder": "B1", "values": [{"measurement": "binding result", "setting": "[1]; label: 5'-FAM on sense strand, blunt", "value": "binds"}]}, {"binder": "B2", "values": [{"measurement": "binding result", "setting": "[1]", "value": "binds"}]}, {"binder": "B3", "values": [{"measurement": "binding result", "setting": "[2]", "value": "no binding"}, {"measurement": "binding result", "setting": "[3]", "value": "no binding"}, {"measurement": "Kd", "setting": "[4]", "value": 749, "unit": "nM"}]}]}
